Reference: a protein production outcome set (Wang et al. 2014)

Assay: label from the status in PepcDB records

Q: For “MPRTQKNDNFVDKSFTVMADIILKILPTNKKAKEAFVYYRDGMSAQAEGEYAEALEYYEEALTLEEDTNDRGYILYNMGLIYASNGDHDKALELYHQAIELNPRLPQALNNIAVIYHYQGEKAKETGDHDGGEALFDQAADYWIRAIRMAPNNYIEAQNWLKTTGRMQIDVFF”, which protein production is on record?
A: failed

Q: With “MLFDEKEILAITRWAKLYANQSPDRILLGSNDIPPEYRAAVATQIELWPRLRNKLPQWPGISSLYIPSRLSLEQSSGAVTSSYKSRFIREGTKVVDLTGGLGIDFIALMSKASQGIYIERNDETAVAARHNIPLLLNEGKDLNILTGDFKEYLPLIKTFHSDYIYVDPARRSGADKRVYAIADCEPDLIPLAAELLPFCSSILAKLSPMIDLWDTLQSLPHVQELHVVAAHGEVKELLVRMSLNEATIPPEKVPIHAVNLLSEDTVIPFIFTMEEERSISVPYADSIDKYVYEPHTALFKAGAFKTVAYRLGLRKLHPNSHLYTSEAYESAFPGRTFVLEEIIPFSTSVLKQLGKVVPRASISCRNFPLSPIELRQRSKMADGGEKTLMGTTMADGKKVLLLLRKAE” as the sequence, how does the protein production read?
A: failed

Q: Which protein production does the source give for “MVHEKKKMRKNHKKITHKGKKITTGAASVLLGAGIVVGANARPVKATSSREDEITEVDTINVISSETEKADVEQRTDTTETVETEGNVDNTNTEVSVPIDETINTEAQAANNTTQVESTVEDTTQEETTETQQNPSVDNQEPVLSDPPSVESPEDSATEVTTTKTTDEVKNAADEANKENKDKLDAEINKAEDNGHTVTQDGDKVYKADATNIDKIIEDLNQFTADQITDIETKLAKYKEELEAYKADQVRYEAELKNYQTAKDAYVKKLEEWGLYKPGDIDPSDISQSLILGEEKNSKVEVLNKGSVVDEGTGSILNGLLNHFYTIDEKFDGEFLKLQYTNLENITYMGKNIDSIQIIFSGWNPNYKGKNADKRTSGIYFSDKLTDGFFYVNSDGVTMEMILFENGKTINLDKNSAYITAGSLNSQGTGNDYIEKAEIFNNSSEYGGSAVTFQDSFIRRHDGTYGGDVLYADQNIEVLAVYPGKDQTLEDAIEEQKKLALEAGWKQEIIDKFINWDSSTDRSKAIFGAGAFMVYGNKIKIRFSNGIGSAWATYSTSIPGMAFREEKPKEPTVPEPPKLDLTYTPGHIELSKSNVHIHYVDVHDTAQAGKNDSFVPDDGIELDDHVDHQLDLLIGTGYNHDLWNFEDAGYILAEEIKDGVQNGTVIKDDQHHYVYLKHKFIPTTDEENEKKDVNQVIHYVYDATGETAYKDYHAVTLHFIKSGQKDVVNGNIIWGNWTLAQDFAGVKSPSIEGYHLKDKNDDVVGPYTIEVTEKNYQNNLDVEYTVRYVANATQELNLKKEVNQVIHYIYENGTKAHDDYHALTLLFEKKGIKDLETGEETWGEWTKTQTFVVVKSPDIQNYIADRLEVGPYEITVTDENYKTNLDKDDIVIYRARIEEVTRDKVVNQVIHYIYEDGSTARPDHVSVKLVFTQTGVKNLATNTTNWNGEWTKTQTFVVVKSPEIEGYTADREEVGPYDITVTNENYNDKLDKEDTVIYRANTNVPDNPDPDNPTPDNPDPDNPTPDTPTPDPTPGDDEEIATPPLPEDEIGNYPSQSDEDDEEERTAPHATGKETRSGTNKNNARVISLENAGSDDSVTPENVSTEATDKTDEKQTTVNSTNEKTLPATGEEKDDFAKVMSGLAAALGITGLAVTSKRRKATAKRSKKDKKNGK” here?
A: failed

Q: For “MSNSSQYYTRTAQFLHWIMAIIFISAWIIGFYSGNFLNYETDGSFKGDVITLHKNIATTIIFLVMIRIFWRYTHPTPELPATMSPLMKKLAHLGHLALYVILIALPISGCFYSWSAGHPAPVLYLFNIPQLIGENPEIMAIAKPVHVYLSWFAGLMVAGHILAALKHHFIDKDNVLKSMIKQSR”, which protein production is on record?
A: failed

Q: For “MTQRPRQDERAKDVWFEYVLTAGRFSAWPIRWQGWLATALLIVGPITGMMAIAKLAPGVPPFVLVLGAMTVCFGTVFPLAYFKGRPAKSRG”, which protein production is on record?
A: failed

Q: Which protein production does the source give for “IGNVQYYLGFNLYDSRTKITKYDNEVGLLGKDSDDNLIYRKGMELGEIWGYTTDRLYTTEDFDSQGKLKNNIPKVEGYNPNPGDILYVDFDGNGIINNGKNTSNEPGDTRIIGNDTRRYQYGIRGGATWKGISLSFILQGVGKRDLWLMNELFYPHYDAYSTLFDSQLNYWTPEHTNSYFPRLYEKAEGNTKANQKPQTRFLQNGAYLSIRNISLSYTFPIKLIKPLGITNLSVFFGGENLFTFDHLPKGIDAERVVTDNLGQRGFTYPYMRQFSFGINLSL” here?
A: failed

Q: For “DITERKQAESALQESEARFQAFMNNSPSASWITDDHGRMLYLSQTYVRTFQLPFDKVEDVTGKTVFELYTPEVAQPFLDNIHRVAQTQQILETIEKAPRLDGTLGDFLVYKFPLPATT”, which protein production is on record?
A: failed

Q: For “FTDITERYQHAEALSESERWIRLITDHVPALIAYLNADLVYEFTNKVYEEWYCWPRGVMLGQSLREVHSEQHYQRLESYVERALAGESVTFEFAETNINNQERYMLRSYVPNRLANGEVVGIFVLIRDITERRRTAEALHQAYQNLELRV”, which protein production is on record?
A: failed

Q: With “SSEANSNSEFQTFIEQENQKAAIQAAISKLTETCWDKCVGKPGSKLDRAESECIANCAERFLDSSSFIMQRLMKKQ” as the sequence, how does the protein production read?
A: not failed

Q: With “MTMIEPDPADFEPIHPYSLARISHVALQAGAVLAQSGASVRVVHEGARMVAEGLGVEVLGMRSGYASFEITLARGHHSFTRMTQIGPHGVNHRLDFAVRDLLKRAARGDMTPDAIEAELKRLQSETPRHPPWLVAIATGAACAAFGRLLGSDWLSFGPVLAAASIGQGVRHLLLGRRFNVFVVAAIVGCISAALGGLGARLIGSSTTELAMMASILLLVPGVPSTNAQTDVMDGYPTMGSARAVTVIMIMVFAVTGLWLAEFVLRIHT” as the sequence, how does the protein production read?
A: failed

Q: Which protein production does the source give for “MLLFWVEFIGTFIGLFISAELIAKGADELEEVLGQGITGGILLGFITALPETIFVIIASLGGSLDVAFGSAIGGNILLFTVGAGLVGIVYFWKWKNNLVMDQEYQVENKFLIISTVALVLITLYSKLNVIAGVCLILIYVYYVIYRLRKFKRDKPIAKKEVDYVKISIFMVVGAILLIILSHYFVEQLDQISLSFGIPAVWISLVLSPIAGELEEKISAFRLITLSKKGGSLSLLSFVGSKIENNTVLLGIIGLFGDYSLRPVIPEMVSLILVNVSVLRVLFDRKLTVLESSLLIIAYAVIIIALYYL” here?
A: failed

Q: With “MRPAPSIVEVVAAIIIGSDGSFLLARRPEGKPYAGYWEFPGGKVNPEESLLRALKRELLEELGIHVKHAYPWITRTFTYPHARVRLHFYRVVEWHGEPHPHEDQELSWQFADNVSVEPLLPANAPVLRALALPPVYGITNAAEWGPQIAAARIGHALQKGLRLVQLREKGMRSKALDAFAREVTALAHHYGARILVNSGTGNESLCQELDMDGIHFTSADLMNLSKRPDVEWCAASCHNAEELFRAEQLEMDFAVLAPVLPTLSHPDSPVLGWRKLARIIHGSAIPVYALGGLQSEDLAIAWEHGAHGIALMRRIEQVRGTGQKA” as the sequence, how does the protein production read?
A: failed

Q: Which protein production does the source give for “MKESNHLMDTPYSYLIRSIGMKLKTSADARLAELGLNSQQGRMIGYIYENQESGIIQKDLAQFFGRRGASITSMLQGLEKKGYIERRIPENNARQKNIYVLPKGAALVEEFNNIFLEVEESITKGLTKDEQKQLMSILIKVNRSM” here?
A: not failed

Q: With “MAVGDQTEQNYLPKKKKSETEDDKRRKKIVPGSLLKAVVRPGGGDSSPVDGDQVIYHCTVRTLDGVVVESTRSESGGRGVPIRDVLGNSKMILGLLEGIPTMHKGEIAMFKMKPEMHYAEIDCPVSAPENFPKDDELHFEIELLDFSKAKIASDDLGVIKKILNEGEGWESPREPYEVKARISAKSGDGHVIFSHTEEPYFFTFGKSEVPKGLEIGIGTMARKEKAVIYVRKQYLTESPLLHIDQDLEEVHFEVELVHFIQVRDMLGDGRLIKRRIRDGRGEFPMDCPLQDSRLSVHYKGMLLNEEKTVFYDSKIDNNDQPLEFSSGEGLVPEGFEMCTRLMLPGEIALVTCPPDYAYDKFPRPPGVSEGAHVQWEIELLGFETPRDWTGLNFQSIMDEADKIRSTGNRLFKEGKFELAKAKYEKVLREFNHVNPQDEDEGKIFGDTRNMLHLNVAACLLKMGEWRKSIETCNKVLEAKPGHVKGLYRRGMAYIAGGEYDDARNDFNMMIKVDKSSEADATAALLKLKQKEQEAESKARKQFKGLFDKRPGEITEVGSEIREESKTIEEVDETKDNDDDETLEEEGATTVSTERKRKWSEKAWPFLKNVMLQIGIQLGVVLIGILIFQFVSAKFT” as the sequence, how does the protein production read?
A: failed

Q: For “MGVVLIDGSTVRSFVDDEEQFKKSVDERFAALDLNKDGVLSRSELRKAFESMRLLESHFGVDVVTPQDELTNLYDSIFEKFDTDQSGSVDLEEFRSEMKKIVLAIADGLGSCPITMVLDDDDDNFLKKAADLEASKLEKASS”, which protein production is on record?
A: failed
